# Measurements taken from the DeepSol protein solubility set.
# Experiment: soluble on expression in E. coli; label from the status in PepcDB or PDB records
row,Sequence,soluble on expression in E. coli
1,GMSESPTAGRASLAPLREFITGLSALLDEQPGEARILREGGALLARLVARDDWLPDAFAQPHPEYYQQMLLHCDSAERFSIVSFVWGPGQRTPIHDHTVWGLIGMLRGAEYSQPFVLDGSGRPVLHGEPTRLEPGHVEAVSPTVGDIHRVHNAYDDRVSISIHVYGANIGGVRRSVYTEAGERKPFISGYSNPYLPNPWDRSKDSAAS,soluble
2,GMSGDSEVGTEAGLTLGGDGILRLTWPRGAAITAADAERAMLRVNQLCGDDRHPMLVDMATTADVSRGARAVFGRPCQASRIALLGSSPVDRVLANFFLGINAVPCPTKFFTSERDALTWLALT,soluble
3,GMSIIDLTKLEQKVATMWDSILTNSPFIHEVLDGKATKALYAIYMTETYHYTKHNAKNQALVGIMGKDLPGKYLSFCFHHAHEEAGHELMALSDIASIGFDREDVLSSKPLPATETLIAYLYWISATGNPVQRLGYSYWAENVYGYIDPVLKAIQSTLDLTPQSMKFFIAHSKIDAKHAEEVNEMLHEVCKTQEDVDSVVAVMENSLVLTARILDDVWKEYQLFQSGASDRYAFLRDNA,soluble
4,GMSSSGIEIAKPFVTATTNVLSTMAGIQPIPGQPYVKKNNVAKGDVSAVVGITGHKNGSISVTFTKQCAIAVVKAMLGDDIQDIIQDTKDAVGEVTNMISGQARAALSEMGMTFQGATPSVIMGDGHTISHVTKSPVIAIPFKTNHGEFTVEFCLE,soluble
5,GMTGHIDPTKEVFAQFRANDREGPIHMLNLVRLRPRAAYPDGRETTGAEAYAAYGRDSGPVSERLGGKVVWQGQFELMLIGPQDEHWDHVFIAEYPSVAAFVEMIRDPVYREAVKHRQAAVEDSRLIRLKPLKPGKGFGEIPT,soluble
6,GMTQHLTIAQTYLAAWNEEDNERRRHLVGQAWAENTRYVDPLMQGEGQQGIAAMIEAARQKFPGYRFVLAGTPDGHGNFTRFSWRLISPDGDDVAGGTDVVSLNTEGRIDNVVGFLDGAVS,soluble
7,GMTSRSPFESFVWQSEIFNCQSNDIDAFYAQLAEEVNRLGLKKNTLGSVDSFAINLYQSASQRSDLPSLLISSGFHGEEAAGPWGMLHFLRGLQPALFERVNLSLLPLVNPTGFKAGHRFNRFGENPNRGFTLENGKPTPNEHTSLEGKLLLEHAQLLCAASRDGILTCHEDVLMNETYVYSFEPTQTPGRFSLGLRDALGQYFKLAKDGFIDECPVTDGVIFNHFDTSFEAFLVRSGAKLAACSETPGQEDFDRRVQANSAAMGQFIAHCAPIL,soluble
8,GMYEEWKIVKREAPILGNDQLIENIWKMKREDSPYDIISLHKVNLIGGGNDAVLILPGTWSSGEQLVTISWNGVHYTIPDYRKSIVLYLARNGFNVYTIDYRTHYVPPFLKDRQLSFTANWGWSTWISDIKEVVSFIKRDSGQERIYLAGESFGGIAALNYSSLYWKNDIKGLILLDGGPTKHGIRPKFYTPEVNSIEEMEAKGIYVIPSRGGPNNPIWSYALANPDMPSPDPKYKSISDFLMDSLYVTGSANPYDYPYSKKEDMFPILASFDPYWPYRLSLERDLKFDYEGILVPTIAFVSERFGIQIFDSKILPSNSEIILLKGYGHLDVYTGENSEKDVNSVVLKWLSQQR,soluble
9,GNGIPPYAGAGDPARFTFNIVQNAKYWDKEHQYESLSDIRLHKFNAPAPGTFDFDESPVDGKKLELVSSKKIGFDGKFAGIAHDGEQFGLVTQDGSLFFTKDFDKATSFAHLDVPNGSDIHNTVDAAFFEPGGLAGIAQNKTLYGALVTKDVDDYIAWKDFLESSGDVMPLFDSKGRPELRTIRARMQYTMSVASDAKSDTFITVSVPHERAEQIVVSEFSKKDNKLVREGVLDGDYYPVGADMRGDVLYLLSKQHNCLVRVNMKDFTVKDAANLPVEGSDLAIVKDRAYILDGDTVHEVKL,not soluble
10,GPGMATEEMKKLATVMAIGTANPPNCYYQADFPDFYFRVTNSDHLINLKQKFKRLCENSRIEKRYLHVTEEILKENPNIAAYEATSLNVRHKMQVKGVAELGKEAALKAIKEWGQPKSKITHLIVCCLAGVDMPGADYQLTKLLDLDPSVKRFMFYHLGCYAGGTVLRLAKDIAENNKGARVLIVCSEMTTTCFRGPSETHLDSMIGQALFGDGAAAVIVGADPDLTVERPIFELVSTAQTIVPESHGAIEGHLLESGLSFHLYKTVPTLISNNIKTCLSDAFTPLNISDWNSLFWIAHPGGPAILDQVTAKVGLEKEKLKVTRQVLKDYGNMSSATVFFIMDEMRKKSLENGQATTGEGLEWGVLFGFGPGITVETVVLRSVPVIS,soluble
11,GPGSMAAGNSISVKVDVPSQVKGQGTLEMSYYIYPITMRLPGFMSDARFNRRYTDFETLRGQLCATYWYCIVPPIPEKESVQDKLGKLPRMVASAKETTASEGDLLEYRRISLRRFLQRLAYHPILGKSDLLQKFTNDNEWRQCIRDPVKPPR,not soluble
12,GPGSMADSIKKHFQQENEVKDTGCMTSALSYLPIYINTDKLPENMLVGAPLFYPPQMAVLPLSWTDAVGFERSCFITCEGPFPHMTANGKDPHDMSFFFLQYMQRVPFMQSTAERGLPIKQLQDVGLLCCTDAFSHIVTDPAERVVVIFGRNGPYFTSLVITPCTMPEKNVVGNIQLANQISLQDLQKLLDACCPTPLVDEIRLAGTSAGTLQGKLHIACRYGNRVVQFTAASALTVRSARDNEDFIFSLEGDVLAQKRIVFDAATIDALISGKTLDELFSCPGPQCMRVSSLVQLIHMEDLTEISHNLGNGASNGDVTREINLKVSGSRLLLSAGEVSVVFHHAHLGVHFPINSHHGVICEPVLTTDLCLMYYPLGSTAALPNAMMRRVRQLPPTWERSLHTDDALRHNALFHFTDWMRGSVPCITCDLSGFRCAQLYEEKDGMSCRTYVVPLAEEIMVLRWETSTCDWEQHLPHLQKFIDTLHLEVPTA,not soluble
13,GPGSMAFHPRDAFILHQEQIQRYNEGDEVDTSAEQKVQIELQRLTDSESTVTIAFSHEDHTLGNPLRHVLMQNREVTSAGYAIPHPLEAKMLLHVQSTDYAVEAVAEGLERLASICDETLQSFEDCMHRMRCEGAKQE,not soluble
14,GPGSMAGAADPRDEDAKAVNAVLRLPEDDFYAVLGLGEAREDATERDIKNAFRRLSKKYHPDVATGDQDSYRLVYQRVQRAYEVLGDRRKRKIYDILGIDGVTRLEKPQQQQQMNPFFAFFGVGQQADAERGKDMVLLMVVPLEDIYRGAAHTSRFAKRKICRACKGTGARSGEDVVKCPHCQGRGRLAQRVQIAPGFVQQVEQVCPHCQGKGTHVAHMCPVCRGKMVLPGEAVLSVDIEEGLPEGHVLTYELEADQAPGQVPGDVLLTVISAPHPVFHRSGNDLYANVSITLKEALLGFKKTLAHLDGHNVELHWDGVMQNTQQVRIAGEGMPRHHVPSERGDLYITYNVLLPEALTAEQRALFQEHFA,not soluble
15,GPGSMARITVELLRRRAEHNEGCLSNLKEIALHQQDIEKIDLIGDACRQLEIIYLCNNYISRIEGLRHLKWLKYLNLAVNNITVIDGLQGCEALERLDLTLNFIAEPTSVQTLLANPFLESLHLTGNPCTKTEGYRAYVIHSLPQLKELDGDEIIRAERITARQAEDVVIEVAEEEAVRVREAERIKQEMLAKGIDPFPPKYNDKGERVYGHTPEERLQILHEQQEMERKKREEQSTPQPGSIAALHQELKRQQQPSQRLTAEEERSKFGRLLLRNEPRVPFHMNQDDAAEFVLTVDPGKFISTTLLSVQVEVDVVRVFIKGKLLQVPVEDELAADAAQVQRSTTTGQLKVMVPYAPEVQERRGGARARLRGLREVTEKASSATGTSAASTTPPPTASPPKVAEPPTRSTLLEIEGRMRGSSSPSLSINQPGTTGTLSSSGKNTTTASSGIVKSVKDISPVPSTMKVSADAATLASQSMTAVLTPTTAASSH,soluble
16,GPGSMEAGGDDLFVINDVEADQMEEVRDARPVEQAQETEADVMESVKGLVPLCVQHAQGPQLSSATFGYDIALMAKRPWAEPGAKLSDYFNYGFNEQSWRVYCAMQEKGEESLLANATAVLQKLELAARPG,soluble
17,GPGSMEGERTMKKNKKGSARGDCDGMISVGAKRLLVSVQDKNRRQKHGEFFDELLLVTQKAKRSPQVINIPGKNEVPVLAVGYIARAMGLNLSNVEVSCLVEMVEEKDLASRGFVPADALKEVIVEALMTGIMAPPKAPVKATPSRKKTASTLPPATIKPISVVRDGEEAIYEAFCVLDLSRRGYLEAEEMRHFLRIGGEPFTEEEVEEFITAAADPENGRIYYEEFADVLARE,soluble
